From patent US20230167182A1 (BIOSION, published 2023) come the findings set out here.

Test [1] deals with T1, recombinant human IL6R-his (human, UniProt P08887 20-365).
T1 construct: In house made; the entry includes the C-terminal His tag; also called human IL6R-his protein
T1 sequence: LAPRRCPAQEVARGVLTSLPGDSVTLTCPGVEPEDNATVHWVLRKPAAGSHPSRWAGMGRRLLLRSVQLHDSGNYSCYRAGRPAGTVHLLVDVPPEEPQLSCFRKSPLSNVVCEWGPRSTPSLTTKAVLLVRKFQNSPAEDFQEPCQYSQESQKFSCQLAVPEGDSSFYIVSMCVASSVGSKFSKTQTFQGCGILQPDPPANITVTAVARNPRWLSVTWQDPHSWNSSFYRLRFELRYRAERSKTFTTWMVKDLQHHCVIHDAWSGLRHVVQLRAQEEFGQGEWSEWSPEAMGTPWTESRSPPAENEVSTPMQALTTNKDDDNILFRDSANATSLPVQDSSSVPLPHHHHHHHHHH
Nature of the test: SPR Biacore; antibody captured by anti-human IgG on CM5, human IL6R-his at 100 nM. On the procedure:
(§1) Un-reacted moieties on the biosensor surface were blocked with ethanolamine. […] Then, serially diluted recombinant human IL6R-his (in house made, amino acid sequence set forth in SEQ ID NO: 44) or macaca IL6R-his protein (in house made, amino acid sequence set forth in SEQ ID NO: 45), starting at 100 nM with a 2-fold serial dilution in HBS-EP⁺ buffer (provided by Biacore), was flowed onto the chip at a flow rate of 30 μL/min. The antigen-antibody association kinetics was followed for 2 minutes and the dissociation kinetics was followed for 10 minutes. The association and dissociation curves were fit to a 1:1 Langmuir binding model using BIAcore evaluation software.
The recombinant human IL6R-his (amino acid sequence set forth in SEQ ID NO: 44) at the concentration of 100 nM instead of serially diluted recombinant human IL6R-his, was flowed onto the chip at a flow rate of 30 μL/min.
(Surface plasmon resonance follows binding to a sensor surface in real time, without labels.)

Test [2] concerns the target T2, human IL6R-Fc protein (human, biotin-labeled in the ELISAs (sites not given)).
T2 construct: In house made; also called biotin-labeled human IL6R-Fc protein
The experiment in a line: ligand blocking ELISA: antibody pre-incubated with biotin-labeled human IL6R-Fc, added to plate-coated human IL6 (blocked ligand: human IL6).

Test [3] concerns the target T2, human IL6R-Fc protein. The experiment in a line: benchmark blocking ELISA: antibody pre-incubated with biotin-labeled human IL6R-Fc, added to plate-coated Tocilizumab (competitor: Tocilizumab). In general terms: An ELISA detects its analyte on a solid surface through an enzyme-linked reagent.
Test [4] deals with T2, human IL6R-Fc protein. The experiment in a line: capture ELISA: antibody captured on anti-IgG F(ab')2 coated plate, then biotin-labeled human IL6R-Fc, streptavidin-HRP. On the procedure:
For the capture ELISA, 96-well micro plates were coated with 2 μg/ml AffiniPure Goat Anti-Mouse IgG, F(ab′)₂ fragment specific (Jackson ImmunoResearch Laboratories, Inc., Cat #115-005-072) in PBS, 100 μl/well, and incubated for 2 hours at 37° C. Plates were washed once with wash buffer (PBS+0.05% v/v Tween-20, PBST) and then blocked with 200 μl/well blocking buffer (5% w/v non-fatty milk in PBST) overnight at 4° C. […] Plates containing captured anti-IL6R antibodies were incubated with biotin-labeled human IL6R-Fc protein (prepared in house, SEQ ID NO: 43, 39.5 ng/ml in 2.5% w/v non-fatty milk in PBST, 100 μl/well) for 40 minutes at 37° C., washed 4 times, and incubated with streptavidin conjugated HRP (1:10000 dilution in PBST, Jackson ImmunoResearch Laboratories, Inc., Cat #016-030-084, 100 μl/well) for 40 minutes at 37° C. After a final wash, plates were incubated with 100 μl/well ELISA substrate TMB (InnoReagents, Cat #TMB-S-002). The reaction was stopped 3-10 minutes later at room temperature with 50 μl/well 1M H₂SO₄, and the absorbance of each well was read on a microplate reader using dual wavelength mode at 450 nm for TMB and 630 nm as the reference wavelength. Then the OD (450-630) values were plotted against antibody concentration. Data was analyzed using Graphpad Prism software and EC₅₀ values were reported.
For the capture ELISA, AffiniPure Goat Anti-Human IgG, F(ab′)₂ fragment specific (Jackson Immuno Research, Cat #109-005-097) was used instead of AffiniPure Goat Anti-Mouse IgG, F(ab′)₂ fragment specific, 100 μl/well.

Test [5] addresses T1, recombinant human IL6R-his. Nature of the test: SPR Biacore; antibody from diluted cell supernatant captured by anti-human IgG on CM5, human IL6R in flow. As to the method:
as §1
Cell supernatants containing humanized antibodies were harvested after six days in shaking flasks and directly subjected to BIAcore test following the protocol described above with modifications.

T2 sequence (chain, as listed by the source limits assumed): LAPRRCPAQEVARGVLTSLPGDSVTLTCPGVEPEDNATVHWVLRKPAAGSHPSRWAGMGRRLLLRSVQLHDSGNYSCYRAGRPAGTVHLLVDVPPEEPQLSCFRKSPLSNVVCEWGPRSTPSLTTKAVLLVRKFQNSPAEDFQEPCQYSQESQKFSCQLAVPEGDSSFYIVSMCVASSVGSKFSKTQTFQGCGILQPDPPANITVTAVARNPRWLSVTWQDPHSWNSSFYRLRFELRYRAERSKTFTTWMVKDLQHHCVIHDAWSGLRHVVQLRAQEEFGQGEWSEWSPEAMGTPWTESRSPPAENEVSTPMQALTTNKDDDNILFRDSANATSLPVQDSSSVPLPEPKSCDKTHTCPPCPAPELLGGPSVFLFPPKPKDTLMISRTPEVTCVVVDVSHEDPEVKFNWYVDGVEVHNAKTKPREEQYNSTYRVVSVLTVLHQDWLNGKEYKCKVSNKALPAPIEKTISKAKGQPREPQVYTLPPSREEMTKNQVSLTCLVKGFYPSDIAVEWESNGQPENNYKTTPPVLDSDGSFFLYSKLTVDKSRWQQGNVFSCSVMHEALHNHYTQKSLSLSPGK

B1: Chimeric 1B5 (antibody, human IgG1, kappa, V domains shown)
VH: QVQLQQPGAELVKPGASVKLSCKASGYTFTSYWMHWVKQRPGQGLEWIGEINPSNGRTNYNENFKSKATLTVDKSSSTAYMQLSSLTSEDSAVYYCARLNTHYVFDYWGQGTTLTVSS
VL: EIVLTQSPTILAASPGEKITFTCSVSSSISSNYLHWYQQKPGFSPKLLIYRTSNLASGVPARFSGSGSGTSYSLTIGTMEAEDVATYYCQQGSGIPFTFGSGTKLEIKR
notes: Mouse variable regions on human IgG1 / human kappa constant regions; also called chimeric antibody 1B5
Broadly, the Kd is a measure of binding affinity in units of concentration. One may read the koff as a measure of how fast the partners let go of each other. What is called kon is the second-order rate constant of association. What is called IC50 is the concentration at which inhibition is half-maximal. Read a high IC50 as weaker potency. In general, EC50 refers to the midpoint of the concentration-response curve. With B1, in test [1], the Kd worked out at 0.915 nM, the koff is 0.000194 s⁻¹ and the kon turned out to be 212000 M⁻¹ s⁻¹. The molecule further showed an IC50 in the test with human IL6R-Fc protein [2] of 0.299 nM. This molecule returned an IC50 with human IL6R-Fc protein [3] of 0.317 nM. It took 0.101 nM to reach a half-maximal effect in the test with human IL6R-Fc protein [4] (EC50).

B2: humanized antibody hu1H7-V6 (antibody, human IgG1, kappa, V domains shown)
VH: QVQLVQSGAEVKKPGASVKVSCKASGYTFTNYWMHWVRQAPGQGLEWIGEINPTNGRTNYNENFKSKVTLTVDTSTSTVYMELSSLRSEDTAVYYCARLNTHYVFDSWGQGTLVTVSS
VL: EIVLTQSPGTLSLSPGERATLSCSVSSSISSNYLHWYQQKPGLSPRLLISRTSTLASGIPARFSGSGSGTEYTLTISRMQSEDFAVYYCQQGSGIPFTFGQGTKLEIKR
notes: Human IgG1 / kappa
For the molecule B2, in test [5], the Kd was determined as 0.584 nM, the koff was 0.000195 s⁻¹ and the kon came to 334000 M⁻¹ s⁻¹.

B3: humanized antibody hu1H7-V7 (antibody, human IgG1, kappa, V domains shown)
VH: QVQLVQSGAEVKKPGASVKVSCKASGYTFTNYWMHWVRQAPGQGLEWIGEINPTNGRTNYNENFKSKVTLTVDKSTSTAYMELSSLRSEDTAVYYCARLNTHYVFDSWGQGTLVTVSS
VL: EIVLTQSPGTLSLSPGERATLSCSVSSSISSNYLHWYQQKPGLSPRLLISRTSTLASGIPARFSGSGSGTEFTLTISRLQSEDFAVYYCQQGSGIPFTFGQGTKLEIKR
notes: Human IgG1 / kappa
As for B3, in test [5], the Kd amounted to 0.855 nM, the koff was determined as 0.000199 s⁻¹ and the kon worked out at 233000 M⁻¹ s⁻¹.

B4: humanized antibody hu1H7-V3 (antibody, human IgG1, kappa, V domains shown)
VH: QVQLVQSGAEVKKPGASVKVSCKASGYTFTNYWMHWVRQAPGQGLEWIGEINPTNGRTNYNENFKSKVTMTVDTSTSTVYMELSSLRSEDTAVYYCARLNTHYVFDSWGQGTLVTVSS
VL: EIVLTQSPGTLSLSPGERATLSCSVSSSISSNYLHWYQQKPGLSPRLLISRTSTLASGIPARFSGSGSGTEYTLTISRMQSEDFAVYYCQQGSGIPFTFGQGTKLEIKR
notes: Human IgG1 / kappa
Take B4: in test [5], the Kd was 0.568 nM, the koff was determined as 0.000176 s⁻¹ and the kon was 311000 M⁻¹ s⁻¹.

B5: humanized antibody hu1H7-V11 (antibody, human IgG1, kappa, V domains shown)
VH: QVQLVQSGAEVKKPGASVKVSCKASGYTFTNYWMHWVRQAPGQGLEWIGEINPTNGRTNYNENFKSRVTLTVDTSTSTVYMELSSLRSEDTAVYYCARLNTHYVFDSWGQGTLVTVSS
VL: EIVLTQSPGTLSLSPGERATLSCSVSSSISSNYLHWYQQKPGLSPRLLISRTSTLASGIPARFSGSGSGTEFTLTISRLQSEDFAVYYCQQGSGIPFTFGQGTKLEIKR
notes: Human IgG1 / kappa
Take B5: in test [5], the Kd was determined as 0.849 nM, the koff amounted to 0.000202 s⁻¹ and the kon was found to be 238000 M⁻¹ s⁻¹.

B6: humanized antibody hu1H7-V9 (antibody, human IgG1, kappa, V domains shown)
VH: QVQLVQSGAEVKKPGASVKVSCKASGYTFTNYWMHWVRQAPGQGLEWIGEINPTNGRTNYNENFKSKVTMTVDTSTSTVYMELSSLRSEDTAVYYCARLNTHYVFDSWGQGTLVTVSS
VL: EIVLTQSPGTLSLSPGERATLSCSVSSSISSNYLHWYQQKPGLSPRLLISRTSTLASGIPARFSGSGSGTEFTLTISRLQSEDFAVYYCQQGSGIPFTFGQGTKLEIKR
notes: Human IgG1 / kappa
For the molecule B6, in test [5], the Kd turned out to be 1.05 nM, the koff worked out at 0.000222 s⁻¹ and the kon is 212000 M⁻¹ s⁻¹.

B7: humanized antibody hu1H7-V1-2 (antibody, human IgG1, kappa, V domains shown)
VH: QVQLVQSGAEVKKPGASVKVSCKASGYTFTNYWMHWVKQAPGQGLDWIGEINPTNGRTNYNENFKSKATLTVDKSTSTAYMELSSLRSEDTAVYYCARLNTHYVFDSWGQGTLVTVSS
VL: EIVLTQSPGTLSLSPGERATLTCSVSSSISSNYLHWYQQKPGFSPRLLISRTSTLASGIPARFSGSGSGTSYSLTISRMQSEDFAVYYCQQGSGIPFTFGQGTKLEIKR
notes: Human IgG1 / kappa; also called hu1H7-Vl-2
B7: in test [5], the Kd was 0.63 nM, the koff amounted to 0.000165 s⁻¹ and the kon was 262000 M⁻¹ s⁻¹.

B8: humanized antibody hu1H7-V2 (antibody, human IgG1, kappa, V domains shown)
VH: QVQLVQSGAEVKKPGASVKVSCKASGYTFTNYWMHWVRQAPGQGLEWIGEINPTNGRTNYNENFKSKVTLTRDTSTSTVYMELSSLRSEDTAVYYCARLNTHYVFDSWGQGTLVTVSS
VL: EIVLTQSPGTLSLSPGERATLSCSVSSSISSNYLHWYQQKPGLSPRLLISRTSTLASGIPARFSGSGSGTEYTLTISRMQSEDFAVYYCQQGSGIPFTFGQGTKLEIKR
notes: Human IgG1 / kappa
As to B8, in test [5], the Kd worked out at 0.733 nM, the koff is 0.000197 s⁻¹ and the kon was found to be 269000 M⁻¹ s⁻¹.

B9: humanized antibody hu1H7-V1 (antibody, human IgG1, kappa, V domains shown)
VH: QVQLVQSGAEVKKPGASVKVSCKASGYTFTNYWMHWVRQAPGQGLEWIGEINPTNGRTNYNENFKSKVTLTVDKSTSTAYMELSSLRSEDTAVYYCARLNTHYVFDSWGQGTLVTVSS
VL: EIVLTQSPGTLSLSPGERATLSCSVSSSISSNYLHWYQQKPGLSPRLLISRTSTLASGIPARFSGSGSGTEYTLTISRMQSEDFAVYYCQQGSGIPFTFGQGTKLEIKR
notes: Human IgG1 / kappa; also called hu1H7-Vl
Turning to B9, in test [5], the Kd turned out to be 0.669 nM, the koff turned out to be 0.000173 s⁻¹ and the kon was 258000 M⁻¹ s⁻¹.

B10: humanized antibody hu1H7-V12 (antibody, human IgG1, kappa, V domains shown)
VH: QVQLVQSGAEVKKPGASVKVSCKASGYTFTNYWMHWVRQAPGQGLEWIGEINPTNGRTNYNENFKSKVTLTVDTSTSTVYMELSSLRSEDTAVYYCARLNTHYVFDSWGQGTLVTVSS
VL: EIVLTQSPGTLSLSPGERATLSCSVSSSISSNYLHWYQQKPGLSPRLLISRTSTLASGIPARFSGSGSGTEFTLTISRLQSEDFAVYYCQQGSGIPFTFGQGTKLEIKR
notes: Human IgG1 / kappa
Take B10: in test [5], the Kd is 0.744 nM, the koff is 0.000207 s⁻¹ and the kon is 279000 M⁻¹ s⁻¹.

B11: humanized antibody hu1H7-V8 (antibody, human IgG1, kappa, V domains shown)
VH: QVQLVQSGAEVKKPGASVKVSCKASGYTFTNYWMHWVRQAPGQGLEWIGEINPTNGRTNYNENFKSKVTLTRDTSTSTVYMELSSLRSEDTAVYYCARLNTHYVFDSWGQGTLVTVSS
VL: EIVLTQSPGTLSLSPGERATLSCSVSSSISSNYLHWYQQKPGLSPRLLISRTSTLASGIPARFSGSGSGTEFTLTISRLQSEDFAVYYCQQGSGIPFTFGQGTKLEIKR
notes: Human IgG1 / kappa
On to B11, for which, in test [5], the Kd is 0.91 nM, the koff turned out to be 0.000199 s⁻¹ and the kon turned out to be 218000 M⁻¹ s⁻¹.
